Results as given in article PMC12630686, “A degron-mimicking molecular glue drives CRBN homo-dimerization and degradation” (Nature Communications, 2025).

B1: HaloTag-mouse CRBN (wild type) [mouse] / hCRBN-NanoLuc with a 191-248 aa deletion (Trunc) [human] (parent)
chain 1: MAGEGDQQDAAHNMGNHLPLLPADSEDEDDEIEMEVEDQDSKEARKPNIINFDTSLPTSHTYLGADMEEFHGRTLHDDDSCQVIPVLPEVLMILIPGQTLPLQLSHPQEVSMVRNLIQKDRTFAVLAYSNVQEREAQFGTTAEIYAYREEQEFGIEVVKVKAIGRQRFKVLELRTQSDGIQQAKVQILPECVLPSTMSAVQLESLNKCQVFPSKPISWEDQYSCKWWQKYQKRKFHCANLTSWPRWLYSLYDAETLMDRIKKQLREWDENLKDDSLPENPIDFSYRVAACLPIDDVLRIQLLKIGSAIQRLRCELDIMNKCTSLCCKQCQETEITTKNEIFSLSLCGPMAAYVNPHGYVHETLTVYKASNLNLIGRPSTVHSWFPGYAWTIAQCKICASHIGWKFTATKKDMSPQKFWGLTRSALLPTIPETEDEISPDKVILCL
chain 2: MAGEGDQQDAAHNMGNHLPLLPAESEEEDEMEVEDQDSKEAKKPNIINFDTSLPTSHTYLGADMEEFHGRTLHDDDSCQVIPVLPQVMMILIPGQTLPLQLFHPQEVSMVRNLIQKDRTFAVLAYSNVQEREAQFGTTAEIYAYREEQDFGIEIVKVKAIGRQRFKVLELRTQSDGIQQAKVQILPECVLDAETLMDRIKKQLREWDENLKDDSLPSNPIDFSYRVAACLPIDDVLRIQLLKIGSAIQRLRCELDIMNKCTSLCCKQCQETEITTKNEIFSLSLCGPMAAYVNPHGYVHETLTVYKACNLNLIGRPSTEHSWFPGYAWTVAQCKICASHIGWKFTATKKDMSPQKFWGLTRSALLPTIPDTEDEISPDKVILCL
B2: HaloTag-CRBN (human, wild type) [human] / hCRBN-NanoLuc with a 191-248 aa deletion (Trunc) [human] (parent)
chain 1: MAGEGDQQDAAHNMGNHLPLLPAESEEEDEMEVEDQDSKEAKKPNIINFDTSLPTSHTYLGADMEEFHGRTLHDDDSCQVIPVLPQVMMILIPGQTLPLQLFHPQEVSMVRNLIQKDRTFAVLAYSNVQEREAQFGTTAEIYAYREEQDFGIEIVKVKAIGRQRFKVLELRTQSDGIQQAKVQILPECVLPSTMSAVQLESLNKCQIFPSKPVSREDQCSYKWWQKYQKRKFHCANLTSWPRWLYSLYDAETLMDRIKKQLREWDENLKDDSLPSNPIDFSYRVAACLPIDDVLRIQLLKIGSAIQRLRCELDIMNKCTSLCCKQCQETEITTKNEIFSLSLCGPMAAYVNPHGYVHETLTVYKACNLNLIGRPSTEHSWFPGYAWTVAQCKICASHIGWKFTATKKDMSPQKFWGLTRSALLPTIPDTEDEISPDKVILCL
chain 2: B1 chain 2

Variants of: B1
Test: NanoBRET
Conditions: with hCRBN-NanoLuc with a 191-248 aa deletion (Trunc) [human]; MRT-31619 at log10 concentration = 4 (highest dose; concentration unit inferred); six biological replicates, mean ± SD; read off a plot

How did the response turn out when chain 1 S105F was run?
Its response is 1.9 mBU.

chain 1 V380E I391V was tested. Which response did it give?
Its response is 2.7 mBU.

Variants of: B2
Test: NanoBRET
Conditions: with hCRBN-NanoLuc with a 191-248 aa deletion (Trunc) [human]; MRT-31619 at log10 concentration = 4 (highest dose; concentration unit inferred); three biological replicates, mean ± SEM; read off a plot

How did the response turn out when chain 1 F150A was run?
Its response is 3.7 mBU.

chain 1 E377A was tested. Which response did it give?
Its response is 3.3 mBU.

Which response does the source give for chain 1 R373A here?
The response was 2.6 mBU.

With chain 1 F150A R373A as the variant, how does the response read?
The response was 2.9 mBU.
